The data set is described as follows: self-splicing fitness, log relative to wild type (ln ratio); higher = more splicing; Tetrahymena group I intron in knt gene, E. coli kanamycin selection, DiMSum; sequences stand for … in CUCUCU…GGAGGGAAAAGUUAUCAGGCAUGCACCUGGUAGCUAGUCUUUAAACCAAUAGAUUGCAUCGGUUUAAAAGGCAAGACCGUCAAAUUGCGGGAAAGGGGUCAACAGCCGUUCAGUACCAAGUCUCAGGGGAAACUUUGAGAUGGCCUUGCAAAGGGUAUGGUAAUAAGCUGACGGACAUGGUCCUAACCACGCAGCCAAGUCCUAAGUCAACAGAUCUUCUGUUGAUAUGGAUGCAGUUCACAGACUAAAUGUCGGUCGGGGAAGAUGUAUUCUUCUCAUAAGAUAUAGUCGGACCUCUCCUUAAUGGGAGCUAGCGGAUGAAGUGAUGCAACACUGGAGCCGCUGGGAACUAAUUUGUAUGCGAAAGUAUAUUGAUUAGUUUUGGAGUACUCGUGGUCG
An outline of the steps:
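A randomised library covering all eight P1ex-region intron nucleotides was built with the intron in the knt kanamycin-resistance gene on pET-22b(+) and held in E. coli BL21(DE3). Cells were grown overnight at 37°C or 30°C on LB agar, with or without 25 μg/mL kanamycin, plus 100 μg/mL carbenicillin, 50 μM IPTG and 0.2% rhamnose, and pooled colonies were amplicon-sequenced on an Illumina HiSeq 2500. DiMSum fitness is the error-weighted combination of wild-type-normalised replicate fold changes, kanamycin versus none.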

± gives the uncertainty stated by the source.

Take GUACAGCAAUAUUACGGGUC: the “self-splicing fitness (ln)” value reads like this: (30 °C) -4.33 ± 0.31; (37 °C) -2.79 ± 0.33. For GUACAGCAAUAUUACGGGUG the same measures were -2.02 ± 0.098 and -1.67 ± 0.13. On the same counts, the results for GUACAGCAAUAUUACGGGUU are -3.13 ± 0.09 and -2.22 ± 0.099. On the same counts, the results for GUACAGCAAUAUUACGGUGU are -3.2 ± 0.14 and -1.51 ± 0.13.

Consider GUACAGCAAUAUUACGGUUU, for which the “self-splicing fitness (ln)” value (30 °C) is -0.599 ± 0.044 and the “self-splicing fitness (ln)” value (37 °C) was -0.0338 ± 0.06. For GUACAGCAAUAUUACGUAAG the same measures were -1.08 ± 0.096 and -0.465 ± 0.11.

As to GUACAGCAAUAUUACGUAGA, the “self-splicing fitness (ln)” value (30 °C) is -2.65 ± 0.11 and the “self-splicing fitness (ln)” value (37 °C) is -1.35 ± 0.14. For GUACAGCAAUAUUACGUAGU the same measures were -2.84 ± 0.11 and -2.08 ± 0.14.

For the sequence GUACAGCAAUAUUACGUCCU, the “self-splicing fitness (ln)” value by setting is: (30 °C) -1.4 ± 0.12; (37 °C) -0.91 ± 0.11. For GUACAGCAAUAUUACGUGCU the same measures were -3.17 ± 0.18 and -3.14 ± 0.24.

As to GUACAGCAAUAUUACGUGUC, the “self-splicing fitness (ln)” value (30 °C) is -3.39 ± 0.2 and the “self-splicing fitness (ln)” value (37 °C) was -2.06 ± 0.2.

Regarding GUACAGCAAUAUUACGUUGG, the “self-splicing fitness (ln)” value was -3.39 ± 0.21 (30 °C) and -2.16 ± 0.15 (37 °C). For the sequence GUAGAGCAAUAUUACGACCU, the “self-splicing fitness (ln)” value (30 °C) was -1.39 ± 0.15 and the “self-splicing fitness (ln)” value (37 °C) was -0.95 ± 0.2. Consider GUAGAGCAAUAUUACGACGC, for which the “self-splicing fitness (ln)” value runs as follows: (30 °C) -0.313 ± 0.16; (37 °C) 0.929 ± 0.22. As for GUAGAGCAAUAUUACGAGAA, the “self-splicing fitness (ln)” value (30 °C) was -3.8 ± 0.34 and the “self-splicing fitness (ln)” value (37 °C) is -1.72 ± 0.47.

As for GUAGAGCAAUAUUACGAUGA, the “self-splicing fitness (ln)” value was -1.5 ± 0.1 (30 °C) and -0.479 ± 0.12 (37 °C).

Regarding GUAGAGCAAUAUUACGAUGU, the “self-splicing fitness (ln)” value is, setting by setting: (30 °C) -1.04 ± 0.18; (37 °C) -0.121 ± 0.19.

Consider GUAGAGCAAUAUUACGCCGU, for which the “self-splicing fitness (ln)” value (30 °C) was -1.3 ± 0.33 and the “self-splicing fitness (ln)” value (37 °C) was -0.778 ± 0.45. On the same counts, the results for GUAGAGCAAUAUUACGCGAU are -3.22 ± 0.2 and 0.14 ± 0.16. For GUAGAGCAAUAUUACGCGCC the same measures were -3.54 ± 0.29 and -1.67 ± 0.38. Consider GUAGAGCAAUAUUACGGAAC, for which the “self-splicing fitness (ln)” value (30 °C) is -1.59 ± 0.3. As to GUAGAGCAAUAUUACGGACU, the “self-splicing fitness (ln)” value runs as follows: (30 °C) -1.4 ± 0.18; (37 °C) -0.459 ± 0.23.

In the case of GUAGAGCAAUAUUACGGAUU, the “self-splicing fitness (ln)” value was -2.61 ± 0.24 (30 °C) and -0.513 ± 0.2 (37 °C). For GUAGAGCAAUAUUACGGCAA the same measures were -2.01 ± 0.13 and -0.535 ± 0.21. With GUAGAGCAAUAUUACGGCAC, the “self-splicing fitness (ln)” value (30 °C) is -0.941 ± 0.4. Turning to GUAGAGCAAUAUUACGGCCC, the “self-splicing fitness (ln)” value runs as follows: (30 °C) -1.36 ± 0.29; (37 °C) -0.935 ± 0.32. For GUAGAGCAAUAUUACGGGAA the same measures were -3.56 ± 0.32 and -2.35 ± 0.26. On the same counts, the results for GUAGAGCAAUAUUACGGGGU are -3.18 ± 0.2 and -2.07 ± 0.15. On the same counts, the results for GUAGAGCAAUAUUACGGGUG are -2.72 ± 0.22 and -2.93 ± 0.28. GUAGAGCAAUAUUACGUACC: the “self-splicing fitness (ln)” value runs as follows: (30 °C) -3.88 ± 0.47; (37 °C) -1.59 ± 0.37. On the same counts, the results for GUAGAGCAAUAUUACGUCCA are -2.45 ± 0.28 and -0.739 ± 0.34. For GUAGAGCAAUAUUACGUUCG the same measures were -1.08 ± 0.065 and -0.139 ± 0.13.

With GUAGAGCAAUAUUACGUUGG, the “self-splicing fitness (ln)” value (30 °C) was -2.16 ± 0.11 and the “self-splicing fitness (ln)” value (37 °C) was -2.04 ± 0.15.

Take GUAUAGCAAUAUUACGAGAC: the “self-splicing fitness (ln)” value (30 °C) is -1.38 ± 0.4 and the “self-splicing fitness (ln)” value (37 °C) was -1.24 ± 0.47. For GUAUAGCAAUAUUACGAGCG the same measures were -1.98 ± 0.16 and -1.39 ± 0.14. In the case of GUAUAGCAAUAUUACGAUAG, the “self-splicing fitness (ln)” value runs as follows: (30 °C) -1.67 ± 0.099; (37 °C) -0.533 ± 0.1. For GUAUAGCAAUAUUACGAUUG the same measures were -3.48 ± 0.42 and -1.67 ± 0.3.

As to GUAUAGCAAUAUUACGCCAG, the “self-splicing fitness (ln)” value runs as follows: (30 °C) -3.17 ± 0.33; (37 °C) -1.26 ± 0.29.

These data come from the supplement of paper PMC7877785.
